The target of the assay is F-actin (skeletal muscle actin) (Oryctolagus cuniculus, UniProt P68135). Description: actin co-sedimentation assay.

As usually defined, the Kd is the constant that tells how readily two partners part at equilibrium. Low values mean a tighter complex, high ones a looser complex.

B1: Alpha-actinin-2 19-266 (protein)
chain: YMIQEEEWDRDLLLDPAWEKQQRKTFTAWCNSHLRKAGTQIENIEEDFRNGLKLMLLLEVISGERLPKPDRGKMRFHKIANVNKALDYIASKGVKLVSIGAEEIVDGNVKMTLGMIWTIILRFAIQDISVEETSAKEGLLLWCQRKTAPYRNVNIQNFHTSWKDGLGLCALIHRHRPDLIDYSKLNKDDPIGNINLAMEIAEKHLDIPKMLDAEDIVNTPKPDERAIMTYVSCFYHAFAGAEQAETAA
Molecule B1 registered a Kd of 7.5 µM.

(Values after article PMC4980809 (2016).)
